In US20230399400A1 (I MAB BIOPHARMA, published 2023):

Columns and labels:
[1] = biological target: T1, human CD47 (hCD47) expressed on the surface of cells (human, UniProt Q08722 19-323); experiment: Flow cytometry on Raji cells endogenously expressing human CD47
T1 construct: whole, on cells; also called CD47+ Raji cells; CD47 on tumor cell lines
Experimental: Raji cells, which endogenously express human CD47 on the surface, were stained with different concentrations of anti-CD47 antibodies at 4° C. for 30 minutes. Then, the cells were washed with PBS three times, followed by incubation with APC-labeled anti-human Fc specific antibody (Invitrogen) at 4° C. for 30 minutes. Binding was measured using a FACSCanto (Becton-Dickinson).

[2] = biological target: T2, Recombinant human CD47 IgV-Fc fusion protein (Acrobiosystems) (human, UniProt Q08722 19-139); experiment: Competition ELISA: CD47-Fc coated, SIRPα-His 1 µg/mL as the blocked ligand, antibody titration
T2 construct: domain: IgV; Bought from Acrobiosystems; also called hCD47 IgV-Fc fusion protein; Recombinant CD47-Fc fusion protein
Experimental: Recombinant CD47-Fc fusion protein (Acrobiosystems) was coated at 1 μg/ml in PBS onto microtiter plates for 16 hours at 4° C. […] Plates were subsequently washed three times and incubated with an HRP-conjugated anti-His secondary antibody for 1 hour at RT. After washing, the TMB solution was added to each well for 30 min and the reaction was stopped with 2M H₂SO₄, and OD was measured at […].

[3] = biological target: T3, biotinylated CD47 IgV protein (Acrobiosystems) (human, UniProt Q08722 19-139, biotinylated (site not stated)); experiment: ELISA, biotinylated CD47 protein (monomeric CD47-ECD) coated at 1 µg/mL, antibody titration
T3 construct: domain: IgV; Bought from Acrobiosystems; also called biotinylated human CD47-IgV domain; Biotinylated CD47 protein
Experimental: Biotinylated CD47 protein (Acrobiosystems) was coated at 1 μg/mL in PBS onto microtiter plates for 2 hours at RT. After coating of antigen, the wells were blocked with PBS/0.05% Tween (PBST) with 1% BSA for 1 hour at RT. After washing of the wells with PBST, different concentrations of anti-CD47 antibodies were added to the wells and incubated for 1 hour at RT. For detection of the binding of the antibodies to CD47, the HRP conjugated secondary antibodies against human Fc (Jackson Immuno Research) were added followed by the addition of fluorogenic substrates (Roche). Between all incubation steps, the wells of the plate were washed with PBST three times. Fluorescence was measured in a TECAN Spectrafluor plate reader.

| EC50 [1] [nM] | EC50 [2] [nM] | EC50 [3] [nM] | Binder |
| --- | --- | --- | --- |
| 0.12 | 0.18 | 0.09 | anti-CD47 antibody B2B (antibody, human IgG4 S228P, kappa, V domains shown, also called lemzoparlimab; TJ011133) VH: EVQLVESGGGLVKPGGSLRLSCAASGLTFERAWMNWVRQAPGKGLEWVGRIKRKTDGETTDYAAPVKGRFSISRDDSKNTLYLQMNSLKTEDTAVYYCAGSNRAFDIWGQGTMVTVSS VL: DIVMTQSPDSLAVSLGERATINCKSSQSVLYAGNNRNYLAWYQQKPGQPPKLLINQASTRASGVPDRFSGSGSGTEFTLIISSLQAEDVAIYYCQQYYTPPLAFGGGTKLEIKR |
|  |  | 0.25 | reference anti-CD47 antibody 2A1 (antibody, V domains shown) VH: EVQLQQSGAELVRSGASVKLSCTASGFNIKDYYLHWVKQRPEQGLEWIGWIDPDNGDTEFAPKFQGKATMTADTSSNTAYLQLSSLTSEDTAVYYCNAAYGSSSYPMDYWGQGTSVTV VL: DIKMTQSPSSLYASLGERVTITCKASQDIHRYLSWFQQKPGKSPKILIYRANRLVDGVPSRFSGSGSGQDYSLTISSLEYEDMGIYYCLQYDEFPYTFGGGTKLEMK |
